Five molecules from patent US20070286806A1, “Methods and Compositions for Modulating a Steroid Receptor” (Mount Sinai Hospital, priority 2004, published 2007) can be followed below.

Residues, ends and D or L forms follow the SMILES beside them. *: point of attachment. Cbz = O=C(OCc1ccccc1)*

In assay [1] the test system is PRA and PRB protein. The experiment in a line: PR protein level by western blot of whole cell lysate after co-transfection in SHM cells. Type of assay: cell-based. On the procedure:
FIG. 5. […] (A) SHM cells were transient transfected (eighteen hours) with PRA or PRB expression vector with or without increasing doses (0.2, 0.5, 1.0 and 2.0 μg) of His-PSF vector as indicated. Whole cell lysate was analyzed by western blot with PR or His tag antibody. NS=non-specific binding. (B) SHM cells were transient transfected (eighteen hours) with PRA or PRB expression vector together with 2.0 μg His tagged PSF1-707 or truncated PSF1-662. Culture media was added with or without 60 nM MG132 (Z-Leu-Leu-Leu-a1) as indicated for another 6 hours. Whole cell lysate was analyzed by western blot with PR or His tag antibody. Gβ protein was also detected as the cell lysate loading control.
For immunoprecipitation of the endogenous PR and PSF, T47D cells cultured in 150 mm dishes were lysed in 800 μl NETN buffer containing 150 mM NaCl plus protease inhibitor cocktail. Cell lysate were then incubated with 5 μg of PR or PSF, or control mouse IgG at 4° C. overnight, followed by the addition of 30 μl of protein A/G PLUS-agarose beads (Santa Cruz) for another two hours at 4° C. Resins were washed with NETN containing 250 mM NaCl and eluted with 1×Laemmli buffer. The eluted proteins along with the whole cell extract were western blotted by PR or PSF antibody. • GST pulldown assay: GST pulldown assay was performed as previously described (20). GST and its fusion proteins were first immobilized to glutathione-Sepharose 4B affinity matrix. The matrix was then incubated at 4° C. overnight with rabbit reticulocyte lysate (Promega) containing PR or His-PSF transcribed and translated in presence of ^35S methionine. The matrix was washed three times with cold NETN buffer before adding 1 ×Laemmli buffer to elute associated proteins. The eluted proteins were separated on 10% SDS-PAGE gel. Gels were treated with Enhancer (NEN, Boston, US) dried and analyzed by autoradiography. • Cell culture and transient transfection: SHM cells and 293T cells were maintained in DMEM plus 5% FCS (Sigma) as described before (22). For experiments involving steroid exposure, the medium was substituted with phenol red free DMEM containing 5% charcoal-treated fetal bovine serum (Hyclone, Utah, USA). Transfection was performed according to manufacturers protocol (Fementas). Cells were seeded at a density to achieve 60-80% confluency the following day. The DNA and transfection reagent were mixed and added to the medium. Cell lysates were collected at least 30 hours after transfection. For luciferase assay, cells were collected in 200 μl of lysis buffer (Promega) of which 10μl was used for the luciferase and β-Gal activity assays respectively. Luciferase activity was determined by using the luciferin reagent (Promega) according to manufacture's protocol. […]
For orientation: In western blotting, separated proteins are transferred to a membrane and probed.

The subject of assay [2] is PR protein. The experiment in a line: PR protein levels on over-expression of PSF in 293T cells. The note with it: 293T cells. Type of assay: cell-based.
For assay [3], the target named is T1, His-PSF (6xHis-tagged full length human PSF, amino acid 1-707) (human, UniProt P23246 1-707).
T1 construct: Expressed in 293T or SHM cells (co-immunoprecipitation, reporter assays) or translated in rabbit reticulocyte lysate with ^35S methionine (GST pulldown); 1 only as 'e.g.' of wild type PSF; also called His tagged PSF; His tagged PSF1-707; not shown: N-terminal 6xHis tag of vector pcDNA3.1 6xHis
T1 sequence: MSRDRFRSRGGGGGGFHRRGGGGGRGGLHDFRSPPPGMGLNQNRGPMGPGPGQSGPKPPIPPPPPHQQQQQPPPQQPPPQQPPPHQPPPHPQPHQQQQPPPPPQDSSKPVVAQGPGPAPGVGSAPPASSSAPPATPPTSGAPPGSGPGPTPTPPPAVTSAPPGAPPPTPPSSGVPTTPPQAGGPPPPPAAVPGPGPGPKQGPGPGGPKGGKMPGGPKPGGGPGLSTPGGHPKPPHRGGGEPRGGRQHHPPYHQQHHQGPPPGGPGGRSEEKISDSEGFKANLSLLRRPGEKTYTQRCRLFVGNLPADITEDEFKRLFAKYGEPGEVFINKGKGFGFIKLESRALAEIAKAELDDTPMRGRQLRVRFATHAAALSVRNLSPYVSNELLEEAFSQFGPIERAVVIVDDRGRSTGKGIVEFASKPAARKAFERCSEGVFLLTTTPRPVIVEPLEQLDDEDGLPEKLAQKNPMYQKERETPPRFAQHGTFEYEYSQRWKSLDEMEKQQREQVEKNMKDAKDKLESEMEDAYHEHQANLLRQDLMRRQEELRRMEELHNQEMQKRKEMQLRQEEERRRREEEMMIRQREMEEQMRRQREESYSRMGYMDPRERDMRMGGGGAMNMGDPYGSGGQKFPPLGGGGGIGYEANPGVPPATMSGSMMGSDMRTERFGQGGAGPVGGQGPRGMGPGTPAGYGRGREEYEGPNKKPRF
The experiment in a line: GST pulldown of ^35S-labeled PSF, autoradiography.

Regarding `CC(C)C[C@@H](C=O)NC(=O)[C@H](CC(C)C)NC(=O)[C@H](CC(C)C)NC(=O)OCc1ccccc1` [MG132, Z-Leu-Leu-Leu-a1, reference compound] (Cbz-Leu-Leu-Leu-aldehyde), the “effect on PSF-induced loss of PR protein” value in assay [1] (final concentration of 60 μM for an additional 6 hours) is given as “block the loss of PR protein”. Moreover, the “effect on PSF-induced reduction of PR protein levels” value in assay [2] is “rescued”.

B1: GST-PR fusion protein, amino acids 456-556 of PRB (other)
chain: STLECILYKAEGAPPQQGPFAPPPCKAPGASGCLLPRDGLPSTSASAAAAGAAPALYPALGLNGLPQLGYQAAVLKEGLPQVYPPYLNYLRPDSEASQSPQ
notes: also called other segments of PR; not shown: glutathione-S-transferase (GST) of vector pGEX 5X-2
As to B1, the binding result in assay [3] is reported as “no binding”.

B2: PSF-1-662: truncated form of PSF, amino acids 1-662 (protein, UniProt P23246 1-662, looked up, fragment)
chain: MSRDRFRSRGGGGGGFHRRGGGGGRGGLHDFRSPPPGMGLNQNRGPMGPGPGQSGPKPPIPPPPPHQQQQQPPPQQPPPQQPPPHQPPPHPQPHQQQQPPPPPQDSSKPVVAQGPGPAPGVGSAPPASSSAPPATPPTSGAPPGSGPGPTPTPPPAVTSAPPGAPPPTPPSSGVPTTPPQAGGPPPPPAAVPGPGPGPKQGPGPGGPKGGKMPGGPKPGGGPGLSTPGGHPKPPHRGGGEPRGGRQHHPPYHQQHHQGPPPGGPGGRSEEKISDSEGFKANLSLLRRPGEKTYTQRCRLFVGNLPADITEDEFKRLFAKYGEPGEVFINKGKGFGFIKLESRALAEIAKAELDDTPMRGRQLRVRFATHAAALSVRNLSPYVSNELLEEAFSQFGPIERAVVIVDDRGRSTGKGIVEFASKPAARKAFERCSEGVFLLTTTPRPVIVEPLEQLDDEDGLPEKLAQKNPMYQKERETPPRFAQHGTFEYEYSQRWKSLDEMEKQQREQVEKNMKDAKDKLESEMEDAYHEHQANLLRQDLMRRQEELRRMEELHNQEMQKRKEMQLRQEEERRRREEEMMIRQREMEEQMRRQREESYSRMGYMDPRERDMRMGGGGAMNMGDPYGSGGQKFPPLGGGGGIGYEANPGVPPATMSGSMMGSDM
As for B2, the “PR proteins after co-transfection with PRB/PRA” value in assay [1] (after 24 hours) is reported as “total loss of PR proteins”.

B3: GST-PR fusion protein, amino acids 650-933 of PRB (other)
chain: ALDAVALPQPLGVPNESQALSQRFTFSPGQDIQLIPPLINLLMSIEPDVIYAGHDNTKPDTSSSLLTSLNQLGERQLLSVVKWSKSLPGFRNLHIDDQITLIQYSWMSLMVFGLGWRSYKHVSGQMLYFAPDLILNEQRMKESSFYSLCLTMWQIPQEFVKLQVSQEEFLCMKVLLLLNTIPLEGLRSQTQFEEMRSSYIRELIKAIGLRQKGVVSSSQRFYQLTKLLDNLHDLVKQLHLYCLNTFIQSRALSVEFPEMMSEVIAAQLPKILAGMVKPLLFHKK
notes: as for B1
As to B3, the binding result in assay [3] is on record as “no binding”.

B4: GST-PR fusion protein, amino acids 164-456 of PRB (other)
chain: LMSRSGCKVGDSSGTAAAHKVLPRGLSPARQLLLPASESPHWSGAPVKPSPQAAAVEVEEEDSSESEESAGPLLKGKPRALGGAAAGGGAAACPPGAAAGGVALVPKEDSRFSAPRVALVEQDAPMAPGRSPLATTVMDFIHVPILPLNHALLAARTRQLLEDESYDGGAGAASAFAPPRTSPCASSTPVAVGDFPDCAYPPDAEPKDDAYPLYSDFQPPALKIKEEEEGAEASARSPRSYLVAGANPAAFPDFPLGPPPPLPPRATPSRPGEAAVTAAPASASVSSASSSGS
notes: as for B1
For the molecule B4, in assay [3], the binding result was “no binding”.
